Target: SARS-CoV-2 full length Spike protein, wild type, expressed on the surface of transiently transfected CHO cells (SARS-CoV-2), P0DTC2
Conditions: remark: other sources report otherwise

B1: antibody 262 (antibody, V domains shown)
VH: QVQLVESGGGVVQPGRSLRLSCAASGFTFSSYAMHWVRQAPGKGLEWVAVISYDGSNKYYADSVKGRFTISRDNSKNTLYLQMNSLRAEDTAVYYCARDGGELLWFGELDYYGMDVWGQGTTVTVSS
VL: SYELTQPSSVSVSPGQTARITCSGDVLAKKYARWFQQKPGQAPVLVIYKDSERPSGIPERFSGSSSGTTVTLTISGAQVEDEADYYCYSAADNNRGVFGGGTKLTVL
  median fluorescence intensity, fold over isotype control (fold over isotype): 0.89

From patent US20220356229A1
